T1: human ephrin-A4 (human, UniProt P52798)
T1 chain: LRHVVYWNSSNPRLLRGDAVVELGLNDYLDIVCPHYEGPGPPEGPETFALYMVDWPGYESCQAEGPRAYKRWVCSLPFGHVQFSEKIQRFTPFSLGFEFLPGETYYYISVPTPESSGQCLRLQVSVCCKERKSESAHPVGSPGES


Legend:
human ephrin-A4 [1] = target: T1, human ephrin-A4; assay: SPR
human ephrin-A4 [2] = target: T1, human ephrin-A4; assay: FACS

| Kd (human ephrin-A4 [1]) [nM] | binding result (human ephrin-A4 [2]) | Binder |
| --- | --- | --- |
| 1.1 | – | SC4.47 (antibody, V domains shown) VH: EVQLQQSGPELVKPGASVKISCTASGYTFTYFYMNWVKQSQGKSLEWVGQINPNNGGTAYNHKFRGKTTLTVDKSSNTAFMELRSLTSEDSAVYFCARWVGTHYFDYWGQGTTLTVSS VL: DIVLTQSPASLPVSLGQRATISCRASQSVSSSSYTYIHWYQQKPGQPPKLLINFASNLESGVPARFSVSGSGTDFTLNIHPVEGEDTATYYCQHSWEIPPTFGGGTKLEIK |
| – | no binding | EphB4-Fc (protein) LEETLLNTKLETADLKWVTFPQVDGQWEELSGLDEEQHSVRTYEVCDVQRAPGQAHWLRTGWVPRRGAVHVYATLRFTMLECLSLPRAGRSCKETFTVFYYESDADTATALTPAWMENPYIKVDTVAAEHLTRKRPGAEATGKVNVKTLRLGPLSKAGFYLAFQDQGACMALLSLHLFYKKCAQLTVNLTRFPETVPRELVVPVAGSCVVDAVPAPGPSPSLYCREDGQWAEQPVTGCSCAPGFEAAEGNTKCRACAQGTFKPLSGEGSCQPCPANSHSNTIGSAVCQCRVGYFRARTDPRGAPCTTPPSAPRSVVSRLNGSSLHLEWSAPLESGGREDLTYALRCRECRPGGSCAPCGGDLTFDPGPRDLVEPWVVVRGLRPDFTYTFEVTALNGVSSLATGPVPFEPVNVTTDREVPPAVSDIRVTRSSPSSLSLAWAVPRAPSGAVLDYEVKYHEKGAEGPSSVRFLKTSENRAELRGLKRGASYLVQVRARSEAGYGPFGQEHHSQTQLDESEGWREQLA |
